This passage reports EC50 and Kd results from patent publication US20160002325A1 (VACCINEX, published 2016).

The target in test [1] is T1, mouse CXCL13 (mouse, UniProt O55038 22-109).
T1 construct: Recombinant protein bought from Peprotech (#250-24); In some assays native mouse CXCL13 from organ extracts of TNF-alpha transgenic mice was used; this is said in the assay field; also called recombinant mouse CXCL13; rmuCXCL13
T1 sequence: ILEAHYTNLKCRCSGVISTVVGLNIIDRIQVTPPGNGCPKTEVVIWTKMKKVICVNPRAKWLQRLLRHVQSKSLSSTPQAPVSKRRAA
The test is described as follows: Capture Epitope Competition ELISA: native mouse CXCL13 captured with MAb 470; unlabeled competitor inhibits binding of 3.3 nM biotin-3D2; four-parameter fit. The protocol: For mouse ELISA, mouse CXCL13 (1:40 dilution of TNF-Tg organ extract) was captured with 33 nM MAb 470 and detected with 3.3 nM biotin-3D2. Each data point represents an average of duplicate measurements from one of at least three independent experiments. […] Curves shown in FIGS. 17A-B were fitted using four-parameter sigmoidal curve fit (R²=0.99).
In general terms: ELISA stands for enzyme-linked immunosorbent assay.

Test [2] deals with T2, cynomolgus monkey CXCL13 (cynomolgus monkey, UniProt O43927 23-104 (human entry), limits assumed).
T2 construct: Recombinant; also called recombinant cynomolgus monkey CXCL13
T2 chain: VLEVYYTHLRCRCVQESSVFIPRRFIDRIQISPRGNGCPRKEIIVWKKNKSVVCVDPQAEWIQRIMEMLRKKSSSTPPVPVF
The test is described as follows: Specificity ELISA on recombinant cynomolgus monkey CXCL13 coated at 100 nM, OD 450/570, four-parameter sigmoidal fit.

Test [3] deals with T1, mouse CXCL13. Put plainly: Specificity ELISA on recombinant mouse CXCL13 coated at 100 nM, OD 450/570, four-parameter sigmoidal fit. How it is done: For specificity ELISA, recombinant human, cynomolgus monkey, and mouse CXCL13 were each coated at 100 nM. […] The data points for each chemokine represents the mean of triplicate measurements. EC50 values were calculated from four-parameter sigmoidal curve fit (R² for the curves that produced EC50 values were 0.99).

Test [4] has as its target T3, human CXCL13 (human, UniProt O43927 23-109).
T3 construct: Recombinant protein bought from Peprotech (#300-47); In some assays native human CXCL13 from supernatant of IFN-gamma-stimulated THP-1 cells was used; this is said in the assay field; also called recombinant human CXCL13; rhuCXCL13
T3 sequence: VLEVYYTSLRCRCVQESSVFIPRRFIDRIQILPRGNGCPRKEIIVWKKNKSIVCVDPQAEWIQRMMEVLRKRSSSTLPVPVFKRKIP
The test is described as follows: Specificity ELISA on recombinant human CXCL13 coated at 100 nM, OD 450/570, four-parameter sigmoidal fit.

For test [5], the target named is T1, mouse CXCL13. Put plainly: SPR (Biacore), recombinant mouse CXCL13; printed as Affinity (Biacore), nM. (In general: SPR reads the build-up and loss of mass on a sensor chip optically.)
Test [6] addresses T3, human CXCL13. Put plainly: SPR (Biacore), recombinant human CXCL13; printed as Affinity (Biacore), nM.
Test [7] addresses T3, human CXCL13. Put plainly: SPR (BIACORE), recombinant human CXCL13, methods similar to Example 1; printed as Affinity, nM. How it is done: (§1) Chemokines were immobilized on a C1 chip in Acetate buffer (pH=5) with human CXCL13 at 1 μg/ml, mouse CXCL13 at 0.3 μg/ml, and negative control SDF-1α at 0.5 μg/ml. 3D2 and 3C9 were diluted in HBS-EP buffer by two-fold from 100 nM to 0.78 nM and from 38 nM to […].

For test [8], the target named is T3, human CXCL13. The test is described as follows: Specificity ELISA on recombinant human CXCL13 coated at 100 nM, OD 450/570, four-parameter sigmoidal fit. The protocol: (§2) Each data point represents mean of triplicate measurements. EC50 values were calculated from four-parameter sigmoidal curve fit (R² for the curves that produced EC50 values were 0.99).
This is another data set of the same source.

For test [9], the target named is T2, cynomolgus monkey CXCL13. The test is described as follows: Specificity ELISA on recombinant cynomolgus monkey CXCL13 coated at 100 nM, OD 450/570, four-parameter sigmoidal fit. The protocol:
as §2

The target in test [10] is T1, mouse CXCL13. The test is described as follows: Specificity ELISA on recombinant mouse CXCL13 coated at 100 nM, OD 450/570, four-parameter sigmoidal fit. The protocol:
as §2
This is another data set of the same source.

The target in test [11] is T1, mouse CXCL13. The test is described as follows: SPR (BIACORE), recombinant mouse CXCL13, methods similar to Example 1; printed as Affinity, nM. How it is done:
as §1

In test [12] the target is T1, mouse CXCL13. The test is described as follows: Capture Epitope Competition ELISA: native mouse CXCL13 (TNF-Tg organ extract) captured with MAb 470; unlabeled 3D2 inhibits binding of biotin-3D2; percent maximal response, four-parameter fit. How it is done:
(§3) Mouse CXCL13-rich organ extracts from TNF-alpha transgenic mice were used as sources of native mouse CXCL13. Mouse CXCL13 (1:40 dilution of TNF-Tg organ extract or 0.5 nM rmuCXCL13) was captured with 33 nM MAb 470 and detected with 3.3 nM biotin-3D2. The chemokine from the extracts (and recombinant mouse CXCL13 which was used as a control) was captured on the ELISA plate by MAb 470. The plate was then incubated with biotinylated 3D2 in the presence of various amounts of unlabeled 3D2.

In test [13] the target is T1, mouse CXCL13. The test is described as follows: Specificity ELISA on plate-coated recombinant mouse CXCL13, OD 450/570, four-parameter sigmoidal fit. How it is done: (§4) Hybridoma clones were screened by ELISA for binding to human and mouse CXCL13 protein. ELISA plates were coated with about 100 nM of human (Peprotech: #300-47) or mouse (Peprotech: #250-24) CXCL13 protein overnight at room temperature (RT). […] The plates were washed and developed with tetramethylbenzidine (TMB) substrate reagents A and B (BD Biosciences: #555214) mixed at equal volumes for 15 minutes in the dark and read at 450/570 wavelengths. Two positive hybridoma clones, labelled “3D2” and “3C9”, both mouse IgG1 antibodies, were selected for further characterization.
(§5) Specificity of the hybridoma-produced mouse anti-human antibodies, 3D2 and 3C9, was assessed by ELISA (as described above) on a panel that included recombinant chemokines (Peprotech: mouse and human CXCL13, human IL-8/CXCL8 (#200-08), human IP-10/CXCL10 (#200-10), human MIG/CXCL9 (#300-26), human SDF-1alpha/CXCL12 (#300-28A) and cynomolgus monkey CXCL13) as well as several non-specific control antigens (recombinant human C35, streptavidin (Thermo: #21122), bovine serum albumin (BSA) (SeraCore: #AP-4510-01)), human serum albumin (HAS) (Sigma: #A8763), insulin (Gibco: #12585-014), and hemoglobin (Sigma: #H7379).

In test [14] the target is T3, human CXCL13. Put plainly: Capture Epitope Competition ELISA: native human CXCL13 (THP-1 supernatant) captured with MAb 801; unlabeled 3D2 inhibits binding of biotin-3C9; percent maximal response, four-parameter fit. How it is done:
(§6) Capture Epitope Competition ELISA was used to assess 3D2 binding to native human and mouse CXCL13. In this assay, native human CXCL13 was obtained from supernatants collected from human IFN-gamma-stimulated THP-1 cells. […] The plate was then incubated with biotinylated 3C9 in the presence of various amounts of unlabeled 3D2. […] As evident from FIG. 3A, 3D2 strongly bound to both native and recombinant human CXCL13 producing statistically similar EC50 values.

Test [15] addresses T3, human CXCL13. Put plainly: Capture Epitope Competition ELISA: recombinant human CXCL13 captured with MAb 801; unlabeled 3D2 inhibits binding of biotin-3C9; percent maximal response, four-parameter fit. How it is done: as §6
The target in test [16] is T1, mouse CXCL13. The test is described as follows: Capture Epitope Competition ELISA: recombinant mouse CXCL13 captured with MAb 470; unlabeled 3D2 inhibits binding of biotin-3D2; percent maximal response, four-parameter fit. The protocol:
as §3

Test [17] concerns the target T2, cynomolgus monkey CXCL13. The test is described as follows: Specificity ELISA on plate-coated recombinant cynomolgus monkey CXCL13, OD 450/570, four-parameter sigmoidal fit. The protocol: as §4, §5
The target in test [18] is T3, human CXCL13. Put plainly: SPR (BIACORE), recombinant chemokine immobilized on C1 chip, antibody in solution; printed as Affinity, nM. How it is done:
as §1

The target of test [19] is T1, mouse CXCL13. The test is described as above. The protocol:
as §1

Test [20] addresses T3, human CXCL13. Put plainly: Specificity ELISA on plate-coated recombinant human CXCL13, OD 450/570, four-parameter sigmoidal fit. How it is done: as §4, §5

B1: MAb 5080 (antibody, human IgG1, V domains shown)
VH: QVQLQESGPGLVKPSETLSLTCTVSGFSLSTFGMGVGWIRQPPGKGLEWIAHIWWDDDRRYNPALKSRVTISKDTSKNQFSLKLSSVTAADTAVYYCARIAGYYGSRDWFAYWGQGTTVTVSS
VL: DIQMTQSPSSLSASVGDRVTITCRASESVDNSGISFMHWYQQKPGKAPKLLIFRASDLESGVPSGFSGSGSRTDFTLTISSLQPEDFATYYCQQSNKDPWTFGQGTKLEIK
notes: also called H2177/L5055
With B1, the EC50 stood at 24.3 nM with mouse CXCL13 [1], 0.06 nM with cynomolgus monkey CXCL13 [2], 2.1 nM with mouse CXCL13 [3] and 0.03 nM in the test with human CXCL13 [4]. Further, the values for the Kd with mouse CXCL13 [5] and with human CXCL13 [6] were 59.2 nM and 14.5 nM, respectively.

B2: MAb 5378 (antibody, V domains shown)
VH: QVQLQESGPGLVKPSETLSLTCTVSGFSLSTFGMGVGWIRQPPGKGLEWIAHIWWDDDRRYNPALKSRVTISKDTSKNQFSLKLSSVTAADTAVYYCARIAGYYGSRDWFAYWGQGTTVTVSS
VL: DIQMTQSPSSLSASVGDRVTITCRASESVDNMGISFMHWYQQKPGKAPKLLIFRASDLESGVPSRFSGSGSGTDFTLTISSLQPEDFATYYCQQSNKDPWTFGQGTKLEIK
notes: also called H5188/L5153
In the case of B2, the Kd with human CXCL13 [7] was determined as 4.5 nM; with mouse CXCL13 [11], 4.2 nM. Moreover, the EC50 came to 0.2 nM in the test with human CXCL13 [8], 0.3 nM with cynomolgus monkey CXCL13 [9] and 3.4 nM with mouse CXCL13 [10].

B3: 3D2 (antibody, mouse IgG1, V domains shown)
VH: EVQLQESGPGILQPSQTLNLTCSFSGFSLSTFGMGVGWIRQPSGKGLEWLAHIWWDDDRRYNPALKSRLTISKETSKNQVFLKIANVDTADTATYYCTRIAGYYGSRDWFAYWGQGTTVTVSS
VL: DIVLTQSPASLAVSLGQRATISCRASESVDNSGISFMHWYQQKPGQPPKLLIFRASDLESGIPARFSGSGSRTDFTLTVNPVETDDVATYFCQQSNKDPWTFGGGTKLEIK
notes: Hybridoma-produced mouse IgG1; also called mouse anti-human CXCL13 antibody 3D2; H1609/L0293
B3: the EC50 in the test with mouse CXCL13 [1] is 11.2 nM; with human CXCL13 [8], 0.2 nM; in the test with mouse CXCL13 [12], 11.2 nM; in the test with mouse CXCL13 [13] it was 0.98 nM; with cynomolgus monkey CXCL13 [9] it was 8.9 nM; with human CXCL13 [14], 0.13 nM. In addition, the concentration giving a half-maximal response (EC50) with human CXCL13 [15] worked out at 0.46 nM; in the test with mouse CXCL13 [16] it was 12.5 nM; with cynomolgus monkey CXCL13 [17], 0.8 nM; in the test with human CXCL13 [20] it was 1.1 nM. The Kd in the test with human CXCL13 [7] stood at 13 nM; with mouse CXCL13 [5], 159 nM; in the test with human CXCL13 [6], 13 nM; with mouse CXCL13 [11] it was 159 nM; in the test with human CXCL13 [18], 12.9 nM; with mouse CXCL13 [19] it was 159 nM.

B4: MAb 1476 (antibody, V domains shown)
VH: EVQLQESGPGILQPSQTLNLTCSFSGFSLSTFGMGVGWIRQPSGKGLEWLAHIWWDDDRRYNPALKSRLTISKETSKNQVFLKIANVDTADTATYYCTRIAGYYGSRDWFAYWGQGTTVTVSS
VL: DIVLTQSPASLAVSLGQRATISCRASESVDNSGISFMHWYQQKPGQPPKLLIFRASDLESGIPARFSGSGSRTDFTLTVNPVETDDVATYFCQQSNKDPWTFGGGTKLEIK
notes: Chimeric IgG1: 3D2 variable domains (H1609/L0293) on human gamma 1 heavy chain constant and human kappa constant; also called chimeric 3D2
For B4, the figures for the EC50 in the test with cynomolgus monkey CXCL13 [2] and in the test with human CXCL13 [4] were 0.51 nM and 0.07 nM, respectively. For the same molecule, the equilibrium dissociation constant (Kd) with human CXCL13 [6] amounted to 11.4 nM.

Broadly, the EC50 is the midpoint of the concentration-response curve. Usually Kd stands for the free concentration of one partner at which half of the binding sites on the other are occupied at equilibrium, for simple one-to-one binding.
